# Measurements published in US20260285956 (published 2026).
# Target: soluble TDP-43 (human)
# Test: SPR
# soluble TDP-43 (human), sequence (chain, as listed by the source): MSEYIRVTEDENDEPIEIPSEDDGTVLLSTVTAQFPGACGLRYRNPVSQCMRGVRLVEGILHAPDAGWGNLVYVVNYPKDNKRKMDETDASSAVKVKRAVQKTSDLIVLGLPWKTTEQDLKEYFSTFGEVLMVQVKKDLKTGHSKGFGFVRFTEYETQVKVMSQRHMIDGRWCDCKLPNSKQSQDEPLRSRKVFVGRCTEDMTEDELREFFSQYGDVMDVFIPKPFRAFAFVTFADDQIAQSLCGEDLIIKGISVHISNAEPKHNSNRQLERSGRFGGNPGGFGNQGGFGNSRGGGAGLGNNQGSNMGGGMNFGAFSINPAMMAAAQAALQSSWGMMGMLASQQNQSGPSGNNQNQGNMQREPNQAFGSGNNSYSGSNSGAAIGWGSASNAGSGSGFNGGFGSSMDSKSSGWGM
row,Binder,Kd
1,"ACI-7071-704H9-Ab1 (antibody, V domains shown) VH: EVQLVESGGDLVKPGGSLKLSCAASGFTFANYAMSWIRQTPEKRLEWVATISGGGLYINYPANLKGRFTISRDNAKNNLYLQMSHLKSEDTAMYYCVKDRGQNWSWFAYWGQGTLVTVSA VL: QLVLTQSSSASFSLGASAKLTCTLSSQHSTYTIEWYQQQPLKPPKYVMELEKDGSHSTGDGIPDRFSGSSSGADRYLSISNIQPEDEAIYICGVGDTIKEQFVYVFGGGTKVTVL",0.23 nM
2,"ACI-7071-707A6-Ab1 (antibody, V domains shown) VH: EVQLVESGGVLVKPGGSLKLSCAASGFIFSSFSMSWVRQNPEKRLEWVATISAAGRYIYYPDNVKGRFTISRDNAKNNLYLYMSHVRSEDTAIYYCVKDRGLNWSWFAYWGQGTLVTVSA VL: QLVLTQSSSASFSLGASAKLTCTLSSQHSTYTIEWYQQQPLKPPKYVMELKKDGSHSTGDGIPDRFSGSSSGADRYLSISDIQPEDEAVYICGVGDTIKEQFVYVFGGGTKVTVL",0.11 nM
3,"ACI-7071-806H5-Ab1 (antibody, V domains shown) VH: DVKLEDSGGGLVQPEGSMKLSCVASGFIFSDAWMAWVRQSPEKGLEWVAEIRGRASSHATYYAESVKGRFTISRDDSKSSVYLQMNSLRAEDTGVYYCTRGVNYWGQGTALTVSS VL: not shown",0.2 nM

# Further binders by falling Kd, results first:
row,Kd,Binder
1,0.75 nM,"ACI-7071-801H1-Ab1 (antibody, V domains shown) VH: EVQLQQSGPELVKPGASVKISCKTSGYTFTEYTMHWVKQSHGQSLEWIGGIHPNNGGTIYNQKFKGRATLTVDKSSSTAYMEFRSLTSDDSAVYYCASPCWGQGTSVTVSS VL: not shown"
2,0.38 nM,"ACI-7071-810H12-Ab1 (antibody, V domains shown) VH: QVQLQQSGAELVRPGASVKLSCKALDYTFTDYEMHWVKQTPVHGLEWIGAVHPRSGGTVYNQRFRAKATLTADKSSSTAFIELSSLTSEDSAVYFCTYYGYDEIYWGQGTLVTVSA VL: DVVMTQISFSLPVSLGDQASISCRSSQSLVHSDGTTYLHWYLQKPGQSPKLLIYKVSNRFSGVPDRFSGSGSGTDFTLKISRVEAEDLGVYFCSQSTHAPYTFGGGTKLEIK"
